Paper PMC2150735
pKd: −log10 of the molar value. Where two headings read alike, the source gives them in different places.

Columns and labels:
GST-RanBP3 (human) = assay: pull-down
Crm1-His6 (human) [1] = target: Crm1-His6 (human) (UniProt O14980); assay: ELISA
Crm1-His6 (human) [2] = target: Crm1-His6 (human) (UniProt O14980); assay: ELISA; remark: listed apart in the source

Row | Substance | ratio bound/total at 1 min, with RanBP1 (GST-RanBP3 (human)) | ratio bound/total at 1 min, without RanBP1 (GST-RanBP3 (human)) | ratio bound/total at 10 min, with RanBP1 (GST-RanBP3 (human)) | pKd (Crm1-His6 (human) [1]) | pKd (Crm1-His6 (human) [2])
1 | Crm1-His6 (from UniProt O14980 1-1071) (receptor) | 0.52 | 0.59 | 0.39 | – | –
2 | GST-RanBP3 (natural protein) | – | – | – | 7.19 | 6.97
